Reference: patent publication US20120196803A1

Target: GFRα1 receptor/IgG Fc fusion
Test: double sandwich ELISA, GFRα1/IgG Fc captured on plate

Bmax [A405/min]	Kd [pM]	Substance
0.155	240	GDNF (hGDNF^78-211) (from UniProt P39905 78-211) (ligand)
0.146	680	An2-hGDNF (N-terminal Angiopep-2 fused to hGDNF^78-211) (from UniProt P39905 78-211)
0.155	530	hGDNF-An2 (C-terminal Angiopep-2 fused to hGDNF^78-211) (from UniProt P39905 78-211)
0.142	270	An2-Hel-hGDNF (N-terminal Angiopep-2 fused to hGDNF^78-211 through a helical (A(EAAAK)2A) linker) (from UniProt P39905 78-211)
0.161	160	An2-Flex-hGDNF (N-terminal Angiopep-2 fused to hGDNF^78-211 through a flexible ((GGGGS)2) linker) (from UniProt P39905 78-211)
0.161	310	An2NT-hGDNF (N-terminal reversed sequence Angiopep-2 fused to hGDNF^78-211) (from UniProt P39905 78-211)
0.202	820	An2-Rig-hGDNF (N-terminal Angiopep-2 fused to hGDNF^78-211 through a rigid (PAPAP) linker) (from UniProt P39905 78-211)
